Experimental data reported in patent US20230279137A1 (EVOTEC INTERNATIONAL, published 2023).

T1: human IFNλ receptor on HEK-Blue IFN-λ cells (human, UniProt Q8IU57 21-520; Q08334 20-325)
T1 sequence (looked up) 1: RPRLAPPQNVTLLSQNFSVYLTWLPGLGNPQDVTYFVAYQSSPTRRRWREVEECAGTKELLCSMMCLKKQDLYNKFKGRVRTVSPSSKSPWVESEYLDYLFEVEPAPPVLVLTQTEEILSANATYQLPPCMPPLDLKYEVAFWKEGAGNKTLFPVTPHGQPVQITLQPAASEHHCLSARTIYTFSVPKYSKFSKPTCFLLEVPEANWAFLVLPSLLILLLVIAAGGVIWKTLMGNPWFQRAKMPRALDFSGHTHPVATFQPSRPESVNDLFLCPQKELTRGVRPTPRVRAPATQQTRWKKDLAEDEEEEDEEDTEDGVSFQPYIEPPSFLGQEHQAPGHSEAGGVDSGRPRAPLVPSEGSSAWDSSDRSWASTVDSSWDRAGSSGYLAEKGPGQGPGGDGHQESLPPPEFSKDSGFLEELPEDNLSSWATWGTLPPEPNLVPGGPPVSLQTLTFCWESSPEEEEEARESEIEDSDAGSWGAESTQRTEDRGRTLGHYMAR
T1 sequence (looked up) 2: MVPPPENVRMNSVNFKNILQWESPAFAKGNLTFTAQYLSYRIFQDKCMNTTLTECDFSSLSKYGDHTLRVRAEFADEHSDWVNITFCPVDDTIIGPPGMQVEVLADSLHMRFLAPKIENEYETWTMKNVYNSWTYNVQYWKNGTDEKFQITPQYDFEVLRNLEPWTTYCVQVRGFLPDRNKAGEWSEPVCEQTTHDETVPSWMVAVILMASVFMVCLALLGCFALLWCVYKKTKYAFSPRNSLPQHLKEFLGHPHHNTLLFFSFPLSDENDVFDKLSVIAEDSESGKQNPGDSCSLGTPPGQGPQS

T2: human IFNγ receptor on HEK-Blue IFN-γ cells (human, UniProt P15260 18-489; P38484 22-337)
T2 sequence (looked up) 1: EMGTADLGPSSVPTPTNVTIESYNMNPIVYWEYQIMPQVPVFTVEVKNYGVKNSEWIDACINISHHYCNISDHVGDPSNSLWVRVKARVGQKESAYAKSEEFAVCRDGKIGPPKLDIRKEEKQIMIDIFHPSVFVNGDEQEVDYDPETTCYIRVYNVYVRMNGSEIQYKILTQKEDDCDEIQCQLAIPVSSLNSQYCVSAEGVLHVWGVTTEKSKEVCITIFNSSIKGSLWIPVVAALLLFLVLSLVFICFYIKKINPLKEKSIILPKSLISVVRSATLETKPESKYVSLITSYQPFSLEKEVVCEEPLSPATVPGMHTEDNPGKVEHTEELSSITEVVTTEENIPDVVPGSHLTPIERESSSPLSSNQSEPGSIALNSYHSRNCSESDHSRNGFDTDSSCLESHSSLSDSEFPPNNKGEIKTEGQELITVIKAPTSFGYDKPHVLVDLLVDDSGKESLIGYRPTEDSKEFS
T2 sequence (looked up) 2: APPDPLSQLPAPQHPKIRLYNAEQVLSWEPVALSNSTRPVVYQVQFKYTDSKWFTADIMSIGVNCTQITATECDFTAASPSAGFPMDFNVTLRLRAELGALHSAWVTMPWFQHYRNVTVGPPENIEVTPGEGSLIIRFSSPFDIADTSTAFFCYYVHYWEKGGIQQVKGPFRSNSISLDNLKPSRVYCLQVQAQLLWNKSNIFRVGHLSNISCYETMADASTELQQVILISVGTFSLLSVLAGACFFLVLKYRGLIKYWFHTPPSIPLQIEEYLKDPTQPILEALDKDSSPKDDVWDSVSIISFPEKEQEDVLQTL

T3: human type I IFN receptor on HEK-Blue IFN-α/β cells (human, UniProt P17181 28-557; P48551 27-515)
T3 sequence (looked up) 1: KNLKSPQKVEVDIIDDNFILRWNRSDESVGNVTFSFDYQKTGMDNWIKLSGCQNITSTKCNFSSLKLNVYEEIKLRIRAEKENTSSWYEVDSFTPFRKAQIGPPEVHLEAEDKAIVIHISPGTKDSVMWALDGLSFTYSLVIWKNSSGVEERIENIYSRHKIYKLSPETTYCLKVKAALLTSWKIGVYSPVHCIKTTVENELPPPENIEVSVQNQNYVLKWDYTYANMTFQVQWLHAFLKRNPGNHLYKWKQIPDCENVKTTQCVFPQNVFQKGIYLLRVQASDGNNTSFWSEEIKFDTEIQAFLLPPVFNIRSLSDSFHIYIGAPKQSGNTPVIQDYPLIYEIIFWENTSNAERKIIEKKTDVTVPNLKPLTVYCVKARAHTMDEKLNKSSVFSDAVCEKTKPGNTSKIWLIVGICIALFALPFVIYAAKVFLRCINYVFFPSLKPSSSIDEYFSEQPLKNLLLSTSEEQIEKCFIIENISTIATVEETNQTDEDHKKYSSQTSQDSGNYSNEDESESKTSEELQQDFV
T3 sequence (looked up) 2: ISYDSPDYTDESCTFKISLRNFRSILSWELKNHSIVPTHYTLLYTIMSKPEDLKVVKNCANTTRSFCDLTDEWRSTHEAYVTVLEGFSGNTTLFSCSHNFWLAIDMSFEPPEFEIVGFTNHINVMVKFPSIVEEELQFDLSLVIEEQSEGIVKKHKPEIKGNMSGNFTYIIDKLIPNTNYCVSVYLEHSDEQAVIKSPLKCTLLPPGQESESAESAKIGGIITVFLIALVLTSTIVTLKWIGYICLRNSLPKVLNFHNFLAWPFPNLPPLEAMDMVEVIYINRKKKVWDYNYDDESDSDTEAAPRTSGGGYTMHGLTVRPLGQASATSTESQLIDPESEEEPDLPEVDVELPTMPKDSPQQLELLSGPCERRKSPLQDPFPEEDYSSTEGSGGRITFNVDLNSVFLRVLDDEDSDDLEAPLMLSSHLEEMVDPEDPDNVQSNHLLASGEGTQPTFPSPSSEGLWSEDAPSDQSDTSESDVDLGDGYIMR


Tests used:
Assay in all cases: cell-based or functional assay
human CD40 = human CD40 (human, UniProt P25942 21-277)
Sequence of human CD40 (P25942 21-277): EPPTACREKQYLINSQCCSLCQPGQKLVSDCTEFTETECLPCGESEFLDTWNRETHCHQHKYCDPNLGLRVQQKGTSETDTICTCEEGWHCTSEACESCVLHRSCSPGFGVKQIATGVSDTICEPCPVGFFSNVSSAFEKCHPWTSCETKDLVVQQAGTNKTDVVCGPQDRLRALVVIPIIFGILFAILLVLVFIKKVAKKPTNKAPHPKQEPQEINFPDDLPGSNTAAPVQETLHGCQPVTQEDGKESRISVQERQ

[1] = target: T1, human IFNλ receptor on HEK-Blue IFN-λ …
[2] = target: T2, human IFNγ receptor on HEK-Blue IFN-γ …
[3] = target: T2, human IFNγ receptor on HEK-Blue IFN-γ …; remark: listed apart in the source
[4] = target: T3, human type I IFN receptor on HEK-Blue …

Row | Binder | CD40 EC50 (ng/mL), NFκB-SEAP reporter in HEK-Blue CD40L cells (human CD40) | IFNλ EC50 (ng/mL), reporter in HEK-Blue IFNλ cells [1] | IFNγ activity EC50, reporter in HEK-Blue IFNγ cells [2] | IFNγ EC50 (ng/mL), reporter in HEK-Blue IFNγ cells [3] | IFNε EC50 (ng/mL), SEAP reporter in HEK-Blue hIFN-α/β cells [4]
1 | IFA44 (antibody, human IgG2, kappa) light: DIQMTQSPSSVSASVGDRVTITCRASQGIYSWLAWYQQKPGKAPNLLIYTASTLQSGVPSRFSGSGSGTDFTLTISSLQPEDFATYYCQQANIFPLTFGGGTKVEIKRTVAAPSVFIFPPSDEQLKSGTASVVCLLNNFYPREAKVQWKVDNALQSGNSQESVTEQDSKDSTYSLSSTLTLSKADYEKHKVYACEVTHQGLSSPVTKSFNRGECGGGGSGGGGSGGGGSGGGGSVPVARLHGALPDARGCHIAQFKSLSPQELQAFKRAKDALEESLLLKDCRCHSRLFPRTWDLRQLQVRERPMALEAELALTLKVLEATADTDPALVDVLDQPLHTLHHILSQFRACIQPQPTAGPRTRGRLHHWLYRLQEAPKKESPGCLEASVTFNLFRLLTRDLNCVASGDLCV heavy: not shown | 41.4 ng/mL | 0.153 ng/mL | – | – | –
2 | IFA45 (antibody, human IgG2, kappa) heavy: not shown light: DIQMTQSPSSVSASVGDRVTITCRASQGIYSWLAWYQQKPGKAPNLLIYTASTLQSGVPSRFSGSGSGTDFTLTISSLQPEDFATYYCQQANIFPLTFGGGTKVEIKRTVAAPSVFIFPPSDEQLKSGTASVVCLLNNFYPREAKVQWKVDNALQSGNSQESVTEQDSKDSTYSLSSTLTLSKADYEKHKVYACEVTHQGLSSPVTKSFNRGEC | 25.8 ng/mL | < 0.001 ng/mL | – | – | –

Continued, values first:

Row | CD40 EC50 (ng/mL), NFκB-SEAP reporter in HEK-Blue CD40L cells (human CD40) | IFNλ EC50 (ng/mL), reporter in HEK-Blue IFNλ cells [1] | IFNγ activity EC50, reporter in HEK-Blue IFNγ cells [2] | IFNγ EC50 (ng/mL), reporter in HEK-Blue IFNγ cells [3] | IFNε EC50 (ng/mL), SEAP reporter in HEK-Blue hIFN-α/β cells [4] | Binder
3 | 50.8 ng/mL | – | < 0.01 ng/mL | < 0.001 ng/mL | – | IFA43 (antibody, human IgG2, kappa) heavy: not shown light: DIQMTQSPSSVSASVGDRVTITCRASQGIYSWLAWYQQKPGKAPNLLIYTASTLQSGVPSRFSGSGSGTDFTLTISSLQPEDFATYYCQQANIFPLTFGGGTKVEIKRTVAAPSVFIFPPSDEQLKSGTASVVCLLNNFYPREAKVQWKVDNALQSGNSQESVTEQDSKDSTYSLSSTLTLSKADYEKHKVYACEVTHQGLSSPVTKSFNRGEC
4 | 65.8 ng/mL | – | – | – | 78.2 ng/mL | IFA49 (antibody, human IgG2, kappa) heavy: not shown light: DIQMTQSPSSVSASVGDRVTITCRASQGIYSWLAWYQQKPGKAPNLLIYTASTLQSGVPSRFSGSGSGTDFTLTISSLQPEDFATYYCQQANIFPLTFGGGTKVEIKRTVAAPSVFIFPPSDEQLKSGTASVVCLLNNFYPREAKVQWKVDNALQSGNSQESVTEQDSKDSTYSLSSTLTLSKADYEKHKVYACEVTHQGLSSPVTKSFNRGEC
